The labels stand for the following.
B1: Hairpin Ribozyme (parent)
chain: GUCCUCUUUCACGUGCGCGUGAAAGAGAGAAGUGAACCAGAGAAACACACGUUGUGGUAUAUUACCUGGUA

This passage reports self-cleavage results from the RNAGym collection of RNA variant scans (doi:10.7554/elife.80360).

The variants in this data set derive from B1. The data set can be described thus: self-cleavage, relative activity (ratio to wild type); higher = more cleavage; co-transcriptional.
Take U5A G21A: the self-cleavage worked out at 0.378.

As for G1C A44G, the self-cleavage was found to be 0.0352.

In the case of C50U G69C, the self-cleavage stood at 0.142.

As for C10U G56A, the self-cleavage was found to be 0.181.

As for U67A G68A, the self-cleavage was determined as 0.115.

For the variant G15U G34C, the self-cleavage is 1.33.

In the case of A43C A44C, the self-cleavage was 0.259.

Consider G27U G54C, for which the self-cleavage was 0.133.

Regarding G13A A31C, the self-cleavage is 0.11.

For the variant U2G C10A, the self-cleavage stood at 0.258.

For U8A U60G, the self-cleavage is 0.439.

A35G G40A: the self-cleavage turned out to be 0.24.

Turning to G51C G68C, the self-cleavage was 0.322.

As to G29A A64U, the self-cleavage worked out at 0.134.

As to U55G U70A, the self-cleavage came out at 0.351.

Take U7C A24C: the self-cleavage amounted to 1.04.

Take A30C C48G: the self-cleavage turned out to be 0.126.

Regarding G1U C38G, the self-cleavage came to 0.0981.

Regarding G1U C38U, the self-cleavage was 0.127.

For A30G G51A, the self-cleavage was 0.254.

Regarding U20C A44C, the self-cleavage was found to be 0.155.

Consider G13U A30G, for which the self-cleavage amounted to 0.191.

With C48A A71C, the self-cleavage was 0.343.

Turning to U8A C46G, the self-cleavage amounted to 0.0541.

With U5A U7C, the self-cleavage is 0.107.

Consider C38U A59U, for which the self-cleavage stood at 0.228.

For the variant U62A A71C, the self-cleavage came to 0.325.

For G40C A61G, the self-cleavage is 0.0698.

For the variant A39G C66G, the self-cleavage worked out at 0.0926.

In the case of G15A C46A, the self-cleavage worked out at 0.132.

As to G27C A31U, the self-cleavage amounted to 0.223.

As for C6U U67G, the self-cleavage came out at 0.271.

With G32A A41G, the self-cleavage stood at 0.183.

With G15U A22C, the self-cleavage is 0.681.

For U8G A31U, the self-cleavage came out at 0.112.

Take U20A A45C: the self-cleavage amounted to 0.109.

For the variant U2C G17U, the self-cleavage amounted to 0.1.

As for A28G G54C, the self-cleavage was 0.432.

For C48G G57U, the self-cleavage is 0.101.

As to A24U A35U, the self-cleavage was 0.584.

As for A26G G68C, the self-cleavage amounted to 0.312.

For the variant U8A A45G, the self-cleavage amounted to 0.193.

On to U55G C66U, for which the self-cleavage is 0.422.

As for C48G U55C, the self-cleavage was 0.106.

C66A G69A: the self-cleavage was determined as 0.268.

Consider A28C A59C, for which the self-cleavage worked out at 0.

Consider C4U G15U, for which the self-cleavage was 0.32.

Turning to U14C G25U, the self-cleavage came to 0.762.

With C6G G17U, the self-cleavage amounted to 0.369.

A22C G32U: the self-cleavage is 0.107.

Take C3U A11G: the self-cleavage amounted to 0.338.

Consider G29C A71U, for which the self-cleavage amounted to 0.21.

Take C4U G32A: the self-cleavage turned out to be 0.196.

Turning to U14C G68U, the self-cleavage was determined as 0.13.

Turning to U7G A11C, the self-cleavage came out at 0.481.

On to A24G A47C, for which the self-cleavage is 0.245.

Consider U7A C10A, for which the self-cleavage worked out at 0.736.

As to A31U G56U, the self-cleavage is 0.187.

U8G A36C: the self-cleavage is 0.5.

With U20G A41U, the self-cleavage turned out to be 1.3.

Consider U14A A41C, for which the self-cleavage was 1.34.

As to U52A U70C, the self-cleavage came out at 0.801.

As to U14C A41G, the self-cleavage worked out at 0.678.

Turning to U7A G17C, the self-cleavage turned out to be 0.791.

As to G32U A44U, the self-cleavage stood at 0.243.

In the case of U52C G56U, the self-cleavage worked out at 0.149.

Turning to U9A G57U, the self-cleavage stood at 0.182.

For A28C A49U, the self-cleavage worked out at 0.192.

G19A G25C: the self-cleavage is 0.419.

On to C3A U70C, for which the self-cleavage was found to be 0.675.

G19C A35C: the self-cleavage came out at 0.832.

Turning to C10U A64U, the self-cleavage was determined as 0.134.

As for U20A A43G, the self-cleavage came out at 0.348.

For the variant C3U G40U, the self-cleavage was determined as 0.119.

For the variant A24U U67G, the self-cleavage was 0.231.

For the variant U60C U67C, the self-cleavage is 0.329.

Consider U60C U67G, for which the self-cleavage was 0.207.

Consider A11U C50U, for which the self-cleavage was determined as 0.36.

Regarding C46G G51U, the self-cleavage worked out at 0.164.

For A24C G40U, the self-cleavage amounted to 0.132.

Regarding C16U A35G, the self-cleavage was found to be 0.937.

Turning to A28U A31C, the self-cleavage was 0.251.

G13C C66G: the self-cleavage is 0.129.

On to A11U U33G, for which the self-cleavage turned out to be 0.151.

For G25C U55C, the self-cleavage is 0.108.

For the variant C4U A26U, the self-cleavage came to 0.156.

As to A41C C66U, the self-cleavage was 0.614.

For U2A A23U, the self-cleavage worked out at 0.167.

As to G13A U60C, the self-cleavage is 1.25.

As for C46G G54A, the self-cleavage is 0.134.

In the case of C4G G40U, the self-cleavage amounted to 0.0761.

For U9C G40A, the self-cleavage worked out at 0.313.

Consider U7G G32C, for which the self-cleavage amounted to 0.161.

C6A U7A: the self-cleavage was determined as 0.648.

U9G G54C: the self-cleavage amounted to 0.341.

As for A30G U67A, the self-cleavage was found to be 0.215.

On to G21U G69C, for which the self-cleavage turned out to be 0.293.

On to U8C A45G, for which the self-cleavage was 0.149.

With A39C A61U, the self-cleavage was found to be 0.125.

C6A C10U: the self-cleavage was determined as 0.371.

In the case of U20A G34A, the self-cleavage was 0.993.

With G57U C65A, the self-cleavage stood at 0.271.

As to U14G G21U, the self-cleavage stood at 0.625.

As to A22C U58A, the self-cleavage was found to be 0.68.

For A31G G34C, the self-cleavage is 1.44.

Take C38U G69A: the self-cleavage stood at 0.138.

With G57C U70C, the self-cleavage is 0.216.

C4A C50G: the self-cleavage stood at 0.149.

Take A41G G42C: the self-cleavage is 0.0762.

Take G40U A43U: the self-cleavage was 0.148.

As for C46G U70G, the self-cleavage was found to be 0.149.

Regarding C46G U70A, the self-cleavage amounted to 0.161.

Regarding C4U C16G, the self-cleavage was determined as 0.243.

G56A A71G: the self-cleavage was found to be 0.245.

Turning to U63A U70A, the self-cleavage worked out at 0.0404.

As for C38U G42A, the self-cleavage is 0.132.

G34C A47G: the self-cleavage worked out at 0.448.

Take C12U C50U: the self-cleavage was determined as 0.431.

For the variant C16U G68U, the self-cleavage was found to be 0.329.

In the case of A11U C48G, the self-cleavage stood at 0.0875.

Consider U9A U70C, for which the self-cleavage was determined as 0.719.

For the variant U2A G51U, the self-cleavage was found to be 0.228.

For U5C U60A, the self-cleavage was found to be 0.392.

Turning to C37U U62G, the self-cleavage came to 0.166.

As to C16U, the self-cleavage amounted to 1.04.

Regarding A28C C66A, the self-cleavage was found to be 0.0844.

For the variant C16A A71C, the self-cleavage amounted to 1.1.

Regarding G21U A39U, the self-cleavage was found to be 0.293.

Take A47G A71G: the self-cleavage came to 0.142.

As for U9C C18G, the self-cleavage came to 0.56.

For the variant C16A C46G, the self-cleavage came to 0.143.

Turning to G27A A61G, the self-cleavage is 0.114.

For the variant G19A A64C, the self-cleavage worked out at 0.181.

On to G54U U67A, for which the self-cleavage turned out to be 0.207.

On to G17U G29A, for which the self-cleavage stood at 0.105.

In the case of A47U U53C, the self-cleavage stood at 0.0703.

As to G42C U58A, the self-cleavage worked out at 0.218.

As for A31U A39U, the self-cleavage stood at 0.12.

Consider G51U A71G, for which the self-cleavage is 1.24.

For the variant U2A A22C, the self-cleavage came to 0.341.

With A22C A30G, the self-cleavage was 0.179.

Take G21C A59U: the self-cleavage was 0.204.

Turning to C4G A49C, the self-cleavage came to 0.161.

Consider G13C C50G, for which the self-cleavage amounted to 0.278.

For the variant G1C C66U, the self-cleavage is 0.12.

With G1U G68C, the self-cleavage came out at 0.0827.

With U9G A11C, the self-cleavage was found to be 0.416.

For the variant A24G G69U, the self-cleavage was determined as 0.13.

On to A22U A36G, for which the self-cleavage came to 0.849.

As for U20A U67C, the self-cleavage stood at 0.237.

On to U2G G27C, for which the self-cleavage is 0.112.

Consider A41U A71G, for which the self-cleavage is 1.14.

As for C37A U67G, the self-cleavage was determined as 0.202.

For the variant A41G A49U, the self-cleavage was determined as 0.105.

For G17A C65U, the self-cleavage is 0.31.

Take C12G U33A: the self-cleavage was 0.0646.

As to C6G G54A, the self-cleavage was determined as 0.28.

For the variant A22C A44C, the self-cleavage was found to be 0.0803.

On to C4A G17A, for which the self-cleavage was 0.174.

On to G25U G57C, for which the self-cleavage came out at 0.163.

Regarding G54U U58A, the self-cleavage came to 0.302.

On to C3U U9C, for which the self-cleavage is 0.387.

Consider A11U G54U, for which the self-cleavage was 0.565.

With C3A A28U, the self-cleavage came out at 0.689.

For the variant C48G U58A, the self-cleavage was 0.105.

Take G56C U62A: the self-cleavage was determined as 0.263.

With G34A U62G, the self-cleavage stood at 0.347.
